# From US20110189178A1
# Experiments:
# [1] = biological target: recombinant human FcγRIIb (R&D Systems) (human) (UniProt P31994); assay: Biacore SPR, global Langmuir fit (mean ± SD, n = 4)
# [2] = biological target: recombinant human FcγRIIb (R&D Systems) (human) (UniProt P31994); assay: Biacore SPR
# [3] = biological target: FcγRIIb on the cell surface (UniProt P31994); assay: binding to FcγRIIb on the cell surface
# [4] = biological target: FcγRIIaH (human) (UniProt P12318); assay: Biacore SPR [cont.]
# [5] = biological target: FcγRI (human) (UniProt P12314); assay: Biacore SPR [cont.]
# [6] = biological target: human FcγRIIIa, V158 isoform (human) (UniProt P08637); assay: Biacore SPR [cont.]
# [7] = biological target: recombinant human FcγRIIb (R&D Systems) (human) (UniProt P31994); assay: Biacore SPR [cont.]
# [8] = biological target: FcγRIIaH (human) (UniProt P12318); assay: Biacore SPR
# [9] = biological target: FcγRIIaR (human) (UniProt P12318); assay: Biacore SPR
# [10] = biological target: FcγRI (human) (UniProt P12314); assay: Biacore SPR
# [11] = biological target: human FcγRIIIa, V158 isoform (human) (UniProt P08637); assay: Biacore SPR
# [12] = biological target: FcγRIIIaF (human) (UniProt P08637); assay: Biacore SPR
# [13] = biological target: FcγRIIaR (human) (UniProt P12318); assay: Biacore SPR [cont.]
# [14] = biological target: FcγRIIIaF (human) (UniProt P08637); assay: Biacore SPR [cont.]
# Chain of FcγRIIb on the cell surface (P31994 43-310 limits assumed): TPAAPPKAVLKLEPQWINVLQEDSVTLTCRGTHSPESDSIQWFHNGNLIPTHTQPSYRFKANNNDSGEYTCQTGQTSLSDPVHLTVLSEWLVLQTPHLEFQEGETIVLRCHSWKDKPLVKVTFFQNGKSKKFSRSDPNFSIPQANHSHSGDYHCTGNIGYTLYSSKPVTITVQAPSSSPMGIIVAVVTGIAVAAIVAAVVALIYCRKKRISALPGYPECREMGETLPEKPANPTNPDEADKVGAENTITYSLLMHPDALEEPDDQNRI
# Chain of recombinant human FcγRIIb (R&D Systems) (human) (P31994 46-217 limits assumed): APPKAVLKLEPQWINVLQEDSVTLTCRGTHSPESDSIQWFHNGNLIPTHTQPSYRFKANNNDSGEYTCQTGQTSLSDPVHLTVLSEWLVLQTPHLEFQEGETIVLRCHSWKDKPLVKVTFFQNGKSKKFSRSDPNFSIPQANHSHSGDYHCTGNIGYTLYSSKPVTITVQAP
# Chain of human FcγRIIIa, V158 isoform (human) (P08637 17-208 F176V limits assumed): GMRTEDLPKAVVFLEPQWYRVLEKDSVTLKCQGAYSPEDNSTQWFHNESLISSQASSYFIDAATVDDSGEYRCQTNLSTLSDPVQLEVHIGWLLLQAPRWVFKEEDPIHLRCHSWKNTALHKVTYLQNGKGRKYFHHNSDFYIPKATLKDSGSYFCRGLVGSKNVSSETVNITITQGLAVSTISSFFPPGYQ
# Chain of FcγRIIIaF (human) (P08637 17-208 limits assumed): as the sequence (P08637 17-208 F176V limits assumed) above, with V160F counted along it
# Chain of FcγRI (human) (P12314 16-288 limits assumed): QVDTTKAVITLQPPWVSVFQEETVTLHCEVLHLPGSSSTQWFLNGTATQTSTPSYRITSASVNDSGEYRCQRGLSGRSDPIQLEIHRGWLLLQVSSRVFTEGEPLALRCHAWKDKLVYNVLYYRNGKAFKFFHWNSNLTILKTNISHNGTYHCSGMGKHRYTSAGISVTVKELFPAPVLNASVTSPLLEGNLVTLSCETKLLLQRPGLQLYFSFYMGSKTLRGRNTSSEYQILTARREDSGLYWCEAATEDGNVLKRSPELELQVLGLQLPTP
# Chain of FcγRIIaH (human) (P12318 34-217): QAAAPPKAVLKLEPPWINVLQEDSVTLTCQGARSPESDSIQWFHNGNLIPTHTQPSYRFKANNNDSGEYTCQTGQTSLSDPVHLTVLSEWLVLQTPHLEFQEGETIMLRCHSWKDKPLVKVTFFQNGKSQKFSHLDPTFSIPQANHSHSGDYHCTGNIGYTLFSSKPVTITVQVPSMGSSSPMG
Substance,Kd [1] [nM],Fold (KD native IgG1/KD variant) [2] [fold],EC50 [3] [nM],Kd [4] [nM],Kd [5] [nM],Kd [6] [nM],Kd [7] [nM],Kd [13] [nM],Fold (against native IgG1) [3] [fold],also measured
G236D (antibody),1000,1.8,,,,,,,,
Native IgG1 (antibody),1800,,440,,,,,,,Kd [8]: 646 nM; Kd [9]: 859 nM; Kd [10]: 0.329 nM; Kd [11]: 191 nM; Kd [2]: 1470 nM; Kd [12]: 1350 nM
S239D/I332E (antibody),,,,163,0.0374,,101,68.6,,Kd [14]: 28.2 nM
S267E (antibody),,30,25,,,,,,18,

# The next lines start with results.
Kd [1] [nM],Fold (KD native IgG1/KD variant) [2] [fold],EC50 [3] [nM],Kd [4] [nM],Kd [5] [nM],Kd [6] [nM],Kd [7] [nM],Kd [13] [nM],Fold (against native IgG1) [3] [fold],Substance,also measured
25,,6,2730,3.71,579,26.6,,,G236D/S267E (antibody),
640,,,,,,,,,L328F (antibody),
380,,,,,,,,,S239D (antibody),
12,150,2,510,0.0142,51.2,13.3,7.16,220,S239D/S267E (antibody),Fold [4]: 1.27; Fold [13]: 120; Fold [5]: 23.2; Fold [6]: 3.74; Fold [7]: 111; Fold [14]: 2.62; Kd [14]: 516 nM
4.2,430,1.4,923,0.22,5040,6.06,3.12,320,S267E/L328F (antibody),Fold [4]: 0.7; Fold [13]: 275; Fold [5]: 1.5; Fold [6]: 0.038; Fold [7]: 242
